In US20210179706A1:
pEC50, pKd: −log10 of the molar value. Several values for one entry are separate records, joined by “and”; a condition that tells them apart may be missing. Identical values can stand only once. Like-named read-outs stand apart in the source and are kept apart here.

Columns and labels:
[1] = target: human IL-1β-His-Bio (human) (UniProt P01584); assay: ELISA, IL-1β-His-Bio captured on streptavidin; antibody 0.333 µg/mL diluted 1:9
[2] = target: human IL-1β-His-Bio (human) (UniProt P01584); assay: ELISA, IL-1β-His-Bio captured on streptavidin; antibody 0.333 µg/mL diluted 1:27
[3] = target: human IL-1β-His-Bio (human) (UniProt P01584); assay: ELISA, IL-1β-His-Bio captured on streptavidin; antibody 0.037 µg/mL
[4] = target: human IL-1β-His-Bio (human) (UniProt P01584); assay: ELISA, IL-1β-His-Bio captured on streptavidin; 4-parameter fit
[5] = target: human IL-1β-hFc (human) (UniProt P01584); assay: competition ELISA on coated IL-1β-hFc, competitor IL-1R1(1-332)-his (anti-His-HRP read-out); antibody 0.111 µg/mL
[6] = target: human IL-1β-hFc (human) (UniProt P01584); assay: as above; remark: listed apart in the source
[7] = target: human IL-1β-hFc (human) (UniProt P01584); assay: competition ELISA on coated IL-1β-hFc, competitor IL-1R1(1-332)-his (anti-His-HRP read-out); antibody 0.333 µg/mL
[8] = target: human IL-1β-hFc (human) (UniProt P01584); assay: competition ELISA on coated IL-1β-hFc, competitor IL-1R1(1-332)-his (anti-His-HRP read-out); antibody 0.037 µg/mL
[9] = target: human IL-1β-His-Bio (human) (UniProt P01584); assay: ELISA, IL-1β-His-Bio captured on streptavidin; 4-parameter fit; remark: listed apart in the source
[10] = target: human IL-1β-His-Bio (human) (UniProt P01584); assay: ELISA, IL-1β-His-Bio captured on streptavidin; antibody 0.333 µg/mL
[11] = target: human IL-1β-hFc (human) (UniProt P01584); assay: competition ELISA on coated IL-1β-hFc, competitor IL-1R1(1-332)-his (anti-His-HRP read-out); antibody 0.333 µg/mL; remark: listed apart in the source
[12] = target: human IL-1β-hFc (human) (UniProt P01584); assay: competition ELISA on coated IL-1β-hFc, competitor IL-1R1(1-332)-his (anti-His-HRP read-out); antibody 0.037 µg/mL; remark: listed apart in the source
[13] = target: human IL-1β-His-Bio (human) (UniProt P01584); assay: ELISA, IL-1β-His-Bio captured on streptavidin; antibody 0.333 µg/mL diluted 1:81
[14] = target: human IL-1β-hFc (human) (UniProt P01584); assay: competition ELISA on coated IL-1β-hFc, competitor IL-1R1(1-332)-his (anti-His-HRP read-out); antibody 1.000 µg/mL
[15] = target: human IL-1β-His-Bio (human) (UniProt P01584); assay: ELISA, IL-1β-His-Bio captured on streptavidin; antibody 0.012 µg/mL
[16] = target: human IL-1β-His-Bio (human) (UniProt P01584); assay: ELISA, IL-1β-His-Bio captured on streptavidin; antibody 1 µg/mL
[17] = target: human IL-1β-His-Bio (human) (UniProt P01584); assay: ELISA, IL-1β-His-Bio captured on streptavidin; antibody 0.004 µg/mL
[18] = target: human IL-1β-hFc (human) (UniProt P01584); assay: competition ELISA on coated IL-1β-hFc, competitor IL-1R1(1-332)-his (anti-His-HRP read-out); antibody 0.012 µg/mL
[19] = target: human IL-1β-his (human) (UniProt P01584); assay: SPR (Biacore), antibody amine-coupled on CM5, IL-1β 1.56-25 nM as analyte
[20] = target: human IL-1β-His-Bio (human) (UniProt P01584); assay: ELISA, IL-1β-His-Bio captured on streptavidin; antibody 0.333 µg/mL diluted 1:729
[21] = target: human IL-1β-hFc (human) (UniProt P01584); assay: competition ELISA on coated IL-1β-hFc, competitor IL-1R1(1-332)-his; 4-parameter fit
[22] = target: human IL-1β-hFc (human) (UniProt P01584); assay: competition ELISA on coated IL-1β-hFc, competitor IL-1R1(1-332)-his (anti-His-HRP read-out); antibody 0.012 µg/mL; remark: listed apart in the source
[23] = target: human IL-1β-His-Bio (human) (UniProt P01584); assay: ELISA, IL-1β-His-Bio captured on streptavidin; antibody 0.333 µg/mL diluted 1:243
[24] = target: human IL-1β-His-Bio (human) (UniProt P01584); assay: ELISA, IL-1β-His-Bio captured on streptavidin; antibody 0.001 µg/mL
[25] = target: human IL-1β-hFc (human) (UniProt P01584); assay: competition ELISA on coated IL-1β-hFc, competitor IL-1R1(1-332)-his (anti-His-HRP read-out); antibody 1.000 µg/mL; remark: listed apart in the source
[26] = target: human IL-1β-hFc (human) (UniProt P01584); assay: competition ELISA on coated IL-1β-hFc, competitor IL-1R1(1-332)-his (anti-His-HRP read-out); antibody 0.004 µg/mL
[27] = target: human IL-1β-His-Bio (human) (UniProt P01584); assay: ELISA, IL-1β-His-Bio captured on streptavidin; antibody 0.111 µg/mL
[28] = target: human IL-1β-hFc (human) (UniProt P01584); assay: competition ELISA on coated IL-1β-hFc, competitor IL-1R1(1-332)-his (anti-His-HRP read-out); antibody 0.001 µg/mL
[29] = target: human IL-1β-hFc (human) (UniProt P01584); assay: as above; remark: listed apart in the source
[30] = target: human IL-1β-His-Bio (human) (UniProt P01584); assay: ELISA, IL-1β-His-Bio captured on streptavidin; antibody 0.333 µg/mL diluted 1:3
[31] = target: human IL-1β-His-Bio (human) (UniProt P01584); assay: ELISA, IL-1β-His-Bio captured on streptavidin; antibody 0.333 µg/mL; remark: listed apart in the source
[32] = target: human IL-1β-hFc (human) (UniProt P01584); assay: competition ELISA on coated IL-1β-hFc, competitor IL-1R1(1-332)-his; 4-parameter fit; remark: listed apart in the source
[33] = target: human IL-1β-hFc (human) (UniProt P01584); assay: competition ELISA on coated IL-1β-hFc, competitor IL-1R1(1-332)-his (anti-His-HRP read-out); antibody 0.004 µg/mL; remark: listed apart in the source

In the case of “canakinumab (trade name Ilaris) (antibody)”, the OD (450 nm) [1] was 2.46 OD450 and 2.61 OD450, the OD (450 nm) [2] was 1.7 OD450 and 1.96 OD450 and the OD (450 nm) [3] was 2.64 OD450 and 2.68 OD450. For the same substance, the pEC50 [4] was 10.41, the OD (450 nm) of blocking assay [5] was 0.091 OD450 and 0.092 OD450 and the OD (450 nm) of blocking assay [6] was 0.519 OD450 and 0.526 OD450. For the same substance, the OD (450 nm) of blocking assay [7] was 0.059 OD450 and 0.057 OD450, the OD (450 nm) of blocking assay [8] was 0.736 OD450 and 0.705 OD450 and the pEC50 [9] was 10.24. The OD (450 nm) [10] was 2.9 OD450 and 2.88 OD450, the OD (450 nm) of blocking assay [11] was 0.104 OD450 and 0.126 OD450 and the OD (450 nm) of blocking assay [12] was 0.366 OD450 and 0.379 OD450. For the same substance, the OD (450 nm) [13] was 0.852 OD450 and 1.11 OD450, the OD (450 nm) of blocking assay [14] was 0.053 OD450 and 0.052 OD450 and the OD (450 nm) [15] was 2.06 OD450 and 2.12 OD450. The OD (450 nm) [16] was 2.87 OD450, the OD (450 nm) [17] was 1.26 OD450 and 1.2 OD450 and the OD (450 nm) of blocking assay [18] was 0.797 OD450 and 0.706 OD450. It also gave a pKd [19] of 10.01, an OD (450 nm) [20] of 0.315 OD450 and a pEC50 [21] of 9.02. The OD (450 nm) of blocking assay [22] was 0.572 OD450 and 0.579 OD450, the OD (450 nm) [23] was 0.408 OD450 and 0.573 OD450 and the OD (450 nm) [24] was 0.581 OD450 and 0.559 OD450. For the same substance, the OD (450 nm) of blocking assay [25] was 0.093 OD450 and 0.088 OD450, the OD (450 nm) of blocking assay [26] was 0.727 OD450 and 0.684 OD450 and the OD (450 nm) [27] was 2.9 OD450 and 2.89 OD450. The OD (450 nm) of blocking assay [28] was 0.738 OD450 and 0.559 OD450, the OD (450 nm) of blocking assay [29] was 0.577 OD450 and 0.72 OD450 and the OD (450 nm) [30] was 2.68 OD450 and 2.88 OD450. The OD (450 nm) [31] was 2.81 OD450 and 2.94 OD450, the pEC50 [32] was 9.59 and the OD (450 nm) of blocking assay [33] was 0.765 OD450 and 0.735 OD450.
